Test results from article PMC4506739.

Target: importin α ΔIBB (NLS-recognition domain of importin α)
Assay: ITC

| Substance | stoichiometry N | fold higher affinity than TPX2 NLS |
| --- | --- | --- |
| GST-TPX2 NLS wildtype (mouse TPX2 residues 302-322) (from UniProt A2APB8 302-322) (peptide) | 1 | – |
| GM130 N74 S25D-GST (Cdk1 phospho-mimicking mutant) (from UniProt Q62839 1-74) (domain or fragment) | 1 | 9 fold |
